Assay results as given in patent publication US20170321220A1 (INDIANA UNIVERSITY RESEARCH AND TECHNOLOGY, published 2017).
Like-named read-outs stand apart in the source and are kept apart here.

How the values were obtained:
[1] = target: P22 procapsid (PC) after removal of the Dec-binding sub-population (bacteriophage P22 (filing: P22 VLP from Salmonella typhimurium)) (UniProt P26747); experiment: SEC-MALS, particle molecular weight after incubation with DecWT; PC control row 22.8±0.7
[2] = target: P22 procapsid (PC) after removal of the Dec-binding sub-population (bacteriophage P22 (filing: P22 VLP from Salmonella typhimurium)) (UniProt P26747); experiment: SEC-MALS, number of Dec monomers calculated from the difference between bound and control particle molecular weight; PC control row 0±43
[3] = target: P22 procapsid (PC) after removal of the Dec-binding sub-population (bacteriophage P22 (filing: P22 VLP from Salmonella typhimurium)) (UniProt P26747); experiment: SEC retention shift after incubation with DecWT; PC control row 0±0.001
[4] = target: P22 procapsid (PC) after removal of the Dec-binding sub-population (bacteriophage P22 (filing: P22 VLP from Salmonella typhimurium)) (UniProt P26747); experiment: SEC-QELS, particle radius of hydration after incubation with DecWT; PC control row 26.4±0.5
[5] = target: T1, EX P22 VLP (expanded form of the bacteriophage P22 virus-like particle) (bacteriophage P22 (filing: P22 VLP from …, UniProt P26747 2-430)); experiment: SPR, EX P22 immobilised, two-site global fit; site 2, column 'Ka2 (M-1 s-1)'
[6] = target: T1, EX P22 VLP (expanded form of the …); experiment: SPR, EX P22 immobilised, two-site global fit; site 1, column 'Kd1 (s-1 x 10-4)'
[7] = target: T1, EX P22 VLP (expanded form of the …)
[8] = target: T1, EX P22 VLP (expanded form of the …); experiment: SEC-MALS, particle molecular weight with Dec bound; EX control row 20.5±0.2
[9] = target: T1, EX P22 VLP (expanded form of the …); experiment: SEC retention shift of P22 upon Dec binding; EX control row 0±0.008
[10] = target: T1, EX P22 VLP (expanded form of the …); experiment: SEC-QELS, particle radius of hydration with Dec bound; EX control row 28.4±0.7
[11] = target: T1, EX P22 VLP (expanded form of the …); experiment: SPR, EX P22 immobilised, two-site global fit; site 2, column 'KD2 (nM)'
[12] = target: T1, EX P22 VLP (expanded form of the …); experiment: SPR, EX P22 immobilised, two-site fit, low-affinity site
[13] = target: T1, EX P22 VLP (expanded form of the …); experiment: SPR, EX P22 immobilised, two-site fit, tighter site
[14] = target: T1, EX P22 VLP (expanded form of the …); experiment: SPR, from the fitted parameters
[15] = target: T1, EX P22 VLP (expanded form of the …); experiment: SPR, EX P22 immobilised, single-site fit of the low concentrations
[16] = target: T1, EX P22 VLP (expanded form of the …); experiment: SPR, extended 4 h dissociation, two independent sites, weak site
[17] = target: T1, EX P22 VLP (expanded form of the …); experiment: SPR, EX P22 immobilised, two-site fit, high-affinity site
[18] = target: T1, EX P22 VLP (expanded form of the …); experiment: SPR, two-site fit with the tight-site kd fixed at the value of the 4 h dissociation
[19] = target: T1, EX P22 VLP (expanded form of the …); experiment: SPR, extended 4 h dissociation, two independent sites, tight site
[20] = target: T1, EX P22 VLP (expanded form of the …); experiment: SPR, single-site fit
[21] = target: T1, EX P22 VLP (expanded form of the …); remark: listed apart in the source

Chain of P22 procapsid (PC) after removal of the Dec-binding sub-population (bacteriophage P22 (filing: P22 VLP from Salmonella typhimurium)) (P26747 2-430, chain 1 of 2): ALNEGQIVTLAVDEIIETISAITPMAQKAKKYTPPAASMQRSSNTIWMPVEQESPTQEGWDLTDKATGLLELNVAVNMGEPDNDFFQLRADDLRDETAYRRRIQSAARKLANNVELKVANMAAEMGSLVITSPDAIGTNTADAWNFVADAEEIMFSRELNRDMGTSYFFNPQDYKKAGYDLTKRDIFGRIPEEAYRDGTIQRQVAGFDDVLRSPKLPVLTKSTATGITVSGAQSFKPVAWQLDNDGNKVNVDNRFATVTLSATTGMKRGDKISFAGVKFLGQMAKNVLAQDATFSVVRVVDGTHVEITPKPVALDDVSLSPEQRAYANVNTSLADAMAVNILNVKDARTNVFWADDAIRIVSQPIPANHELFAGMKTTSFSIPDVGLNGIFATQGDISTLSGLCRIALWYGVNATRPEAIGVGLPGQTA
Chain of P22 procapsid (PC) after removal of the Dec-binding sub-population (bacteriophage P22 (filing: P22 VLP from Salmonella typhimurium)) (P26748 whole entry, chain 2 of 2, further chain): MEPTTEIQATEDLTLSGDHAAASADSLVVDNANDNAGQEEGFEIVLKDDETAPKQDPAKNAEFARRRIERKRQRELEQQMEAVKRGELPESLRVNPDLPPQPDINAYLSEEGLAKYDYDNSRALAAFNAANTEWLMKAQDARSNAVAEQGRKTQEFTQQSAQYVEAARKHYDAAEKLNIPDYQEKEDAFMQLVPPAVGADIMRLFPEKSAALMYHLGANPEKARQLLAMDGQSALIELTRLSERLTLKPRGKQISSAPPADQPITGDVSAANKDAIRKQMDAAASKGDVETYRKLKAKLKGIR
T1 sequence (P26747 2-430 limits assumed): as the sequence (P26747 2-430, chain 1 of 2) above

**Q.** Which MW (MDa) [1] does the source give for DecWT here?
**A.** Its MW (MDa) is 23.2 MDa.

**Q.** What about the Dec monomers [2] of the same molecule?
**A.** The Dec monomers was 24 monomers.

**Q.** What about the retention shift [3] of the same molecule?
**A.** The retention shift was 0.03 min.

**Q.** What about the Rh (nm) [4] of the same molecule?
**A.** The Rh (nm) was 26.6 nm.

B1: DecΔ11 (Dec lacking the first 11 N-terminal residues) (other)
chain: MGSSHHHHHHSQDPLYKDADGVYVSALPIKAIKYANDGSANAEFDGPYADQYMSAQTVAVFKPEVGGYLFRSQYGELLYMSKTAFEANYTSASGSVANAETADKLSTARTITLTGAVTGSASFDGSANVTIETTSGS
**Q.** Which results are given for B1?
**A.** kon [5]: 38300 M⁻¹ s⁻¹; koff [6]: 4.4e-05 s⁻¹; koff [7]: 0.0044 s⁻¹; kon [7]: 9200 M⁻¹ s⁻¹; MW (MDa) [8]: 23.6 MDa; retention shift [9]: 0.595 min; Rh (nm) [10]: 30.1 nm

B2: DecSelf (Dec fused at its C-terminus to the 21 amino acid CD47 mimic Self-peptide) (other)
chain: MGSSHHHHHHSQDPMANPNFTPSWPLYKDADGVYVSALPIKAIKYANDGSANAEFDGPYADQYMSAQTVAVFKPEVGGYLFRSQYGELLYMSKTAFEANYTSASGSVANAETADKLSTARTITLTGAVTGSASFDGSANVTIETTSGSELGNYTCEVTELTREGETIIELK
**Q.** What does the source list for B2?
**A.** kon [5]: 2190 M⁻¹ s⁻¹; koff [7]: 0.00323 s⁻¹; Kd [11]: 146 nM; MW (MDa) [8]: 22.6 MDa; retention shift [9]: 0.5 min; Rh (nm) [10]: 29.6 nm; Kd [12]: 146 nM; Kd [13]: 18.3 nM; koff [13]: 0.0002 s⁻¹; kon [13]: 11200 M⁻¹ s⁻¹

B3: DecWT (other)
chain: MGSSHHHHHHSLVPRGSQDPMANPNFTPSWPLYKDADGVYVSALPIKAIKYANDGSANAEFDGPYADQYMSAQTVAVFKPEVGGYLFRSQYGELLYMSKTAFEANYTSASGSVANAETADKLSTARTITLTGAVTGSASFDGSANVTIETTSGS
notes: also called Dec with an N-terminal his-tag
**Q.** With B3 as the molecule, how does the Kd [7] read?
**A.** Its Kd is 446 nM.

**Q.** What about the koff [7] of the same molecule?
**A.** The koff was 0.00182 s⁻¹.

**Q.** What about the “half-life of binding at the tight-site” value [14] of the same molecule?
**A.** The value was at least 60 h.

**Q.** And the “MW (MDa)” value [8]?
**A.** Its value is 23 MDa.

**Q.** What about the Kd [15] of the same molecule?
**A.** Its Kd is 24 nM.

**Q.** What about the koff [15] of the same molecule?
**A.** The koff was 0.00033 s⁻¹.

**Q.** And the kon [15]?
**A.** The kon was 13800 M⁻¹ s⁻¹.

**Q.** What about the koff [16] of the same molecule?
**A.** Its koff is 0.00095 s⁻¹.

**Q.** And the “retention shift” value [9]?
**A.** Its value is 0.619 min.

**Q.** What about the Kd [17] of the same molecule?
**A.** Its Kd is 9.2 nM.

**Q.** And the koff [17]?
**A.** Its koff is 0.000106 s⁻¹.

**Q.** And the kon [17]?
**A.** The kon was 11500 M⁻¹ s⁻¹.

**Q.** And the Kd [18]?
**A.** Its Kd is 0.255 nM.

**Q.** And the “Rh (nm)” value [10]?
**A.** The value was 29.6 nm.

**Q.** And the koff [19]?
**A.** The koff was 3.2e-06 s⁻¹.

**Q.** What about the Kd [12] of the same molecule?
**A.** Its Kd is 1500 nM.

**Q.** What about the koff [12] of the same molecule?
**A.** Its koff is 0.00298 s⁻¹.

**Q.** And the kon [12]?
**A.** The kon was 1980 M⁻¹ s⁻¹.

B4: DecΔ20 (Dec lacking the first 20 N-terminal residues) (other)
chain: MGSSHHHHHHSQDPVSALPIKAIKYANDGSANAEFDGPYADQYMSAQTVAVFKPEVGGYLFRSQYGELLYMSKTAFEANYTSASGSVANAETADKLSTARTITLTGAVTGSASFDGSANVTIETTSGS
**Q.** How did the Kd [7] turn out when B4 was run?
**A.** Its Kd is 3450 nM.

**Q.** What about the koff [7] of the same molecule?
**A.** The koff was 0.00024 s⁻¹.

**Q.** What about the “fold reduction in KD from the high-affinity site of DecWT” value [20] of the same molecule?
**A.** Its value is over 300 fold.

**Q.** What about the Kd [21] of the same molecule?
**A.** Its Kd is 3500 nM.

B5: DecmCD40L (Dec fused at its C-terminus to the soluble region of murine CD40L) (ligand)
chain: MGSSHHHHHHSQDPMANPNFTPSWPLYKDADGVYVSALPIKAIKYANDGSANAEFDGPYADQYMSAQTVAVFKPEVGGYLFRSQYGELLYMSKTAFEANYTSASGSVANAETADKLSTARTITLTGAVTGSASFDGSANVTIETTSGSELQRGDEDPQIAAHVVSEANSNAASVLQWAKKGYYTMKSNLVMLENGKQLTVKREGLYYVYTQVTFCSNREPSSQRPFIVGLWLKPSSGSERILLKAANTHSSSQLCEQQSVHLGGVFELQAGASVFVNVTEASQVIHRVGFSSFGLLKL
**Q.** Which results are given for B5?
**A.** kon [5]: 4820 M⁻¹ s⁻¹; koff [7]: 0.0068 s⁻¹; Kd [12]: 1420 nM; Kd [13]: 30.8 nM; koff [13]: 0.0002 s⁻¹; kon [13]: 6440 M⁻¹ s⁻¹
